According to patent US20020035240A1 (Amgen, published 2002):

Biological target: T1, rat p55CDC (rat, UniProt Q62623 1-499, phosphorylated in CHO cells (sites not given))
T1 construct: 499 amino acids; In the assays it came from cell lysates: CHO cells transfected with the 1.8 kb rat cDNA (PMTp55s), or the endogenous protein of Rat1 cells
Test: co-immunoprecipitation with p55CDC antibody from 35S-labelled CHO cell lysates, SDS-PAGE
Experimental: Autoradiography was performed for 1 week.
In vitro translation was performed using a nuclease treated rabbit reticulocyte lysate (Promega, Madison, WI) and [³H]-leucine (Amersham TRK683). The mRNA template was produced by using the Stratagene in vitro transcription kit and the p55CDC cDNA subcloned into the Bluescript vector as substrate. Cell lysates were prepared as described (59) after rinsing the plates twice with PBS. Cells were lysed in modified radioimmunoprecipitation assay (RIPA) buffer with additional […] (150 mM NaCl, 1.0% NP-40, 1.0% sodium deoxycholate, 0.1% SDS, 2 mM EDTA, 6 mM Na₂HPO₄, 4 mM NaH₂PO4 50 mM NaF, 200 μM Na₃VO₄, 20 μg/ml aprotinin, 1 μg/ml leupeptin, 10 μg/ml soybean trypsin inhibitor and 50 μg/ml phenylmethyl sulfonyl fluoride). All protease inhibitors were purchased from Sigma. Protein concentrations were estimated using the Bicinchoninic acid reagent (Pierce). For 250 μg lysate in a final volume of 700 μl RIPA buffer, we used 7 μl of affinity purified p55CDC antibodies (140 μg protein/ml) or 12 μl of p55CDC competed antiserum (700 μg protein/ml) which gave an equivalent level of immunoglobulin for both preparations. Immunoprecipitation of p34^cdc2 complexes was done using 10 μl of the p34^cdc2 mouse monoclonal antibody 17 (Santa Cruz Biotechnology, Santa Cruz, Calif.). […]

T1 sequence (Q62623 whole entry D77E): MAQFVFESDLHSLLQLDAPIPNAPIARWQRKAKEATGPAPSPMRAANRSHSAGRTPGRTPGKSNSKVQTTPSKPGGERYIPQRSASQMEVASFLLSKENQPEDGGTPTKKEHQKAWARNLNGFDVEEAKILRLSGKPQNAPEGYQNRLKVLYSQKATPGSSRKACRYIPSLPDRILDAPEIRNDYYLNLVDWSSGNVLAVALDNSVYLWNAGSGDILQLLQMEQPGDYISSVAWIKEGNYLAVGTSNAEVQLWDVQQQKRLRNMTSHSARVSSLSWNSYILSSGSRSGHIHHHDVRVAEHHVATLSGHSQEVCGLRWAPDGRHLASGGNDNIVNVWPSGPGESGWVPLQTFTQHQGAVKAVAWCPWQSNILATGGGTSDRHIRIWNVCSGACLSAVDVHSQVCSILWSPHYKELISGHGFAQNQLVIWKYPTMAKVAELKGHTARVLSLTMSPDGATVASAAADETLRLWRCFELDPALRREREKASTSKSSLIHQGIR

B1: p34cdc2 (CHO cells) (enzyme)
chain: not shown
**Q.** Does B1 bind?
**A.** Result: no binding
